B1: H1H27734P-N297Q (antibody, human IgG1, V domains shown)
VH: EVQLVESRGGLVQPGGSLRLSCAASGFTFSSYAMSWVRQAPGKGLEWVSAISGSGGSTFYADSVKGRFTISRDNSKNTVYLQMNSLRAEDTAVYYCAKALVLRFLEWLGDYWGQGTLVTVSS
VL: DIQMTQSPSTLSASVGDRVTITCRASQSISSWLAWFQQKPGKAPKLLIYKASSLESGVPSRFSGSGSGTEFTLTISSLQPDDFATYYCQQYKSYWTFGQGTKVEIKR
B2: H2aM21229N (antibody, mouse IgG2a, V domains shown)
VH: EVQLVESGGGLVKPGGSLRLSCAASGFTFSRYSMNWVRQAPGKGLEWVSSISSSSSYIYYGDTVKGRFTISRDNAKKSLYLQMNSLRAEDTAVYYCVRDRGQLVLYFDYWGQGTLVTVSS
VL: DIQMTQSPASLSTSIRDRVTITCRASLSISSFLNWFQQRPGKAPKLLIYVASNLQSGVPSRFSDSGSGTDFTLTISSLQPEDFATYYCQQNYSTPPITFGQGTRLEIK
B3: H1H21227N-N297Q (antibody, human IgG1, V domains shown)
VH: QVQLVQSGAEVKKPGASVKVSCKVSGYTLTELSIHWVRQVPGKGLEWMGGFDPEEGETIFAQEFRDRVTLTEDTSPDTAYMELSSLKSEDAAVYYCTTPRYCNNGICYDYWGQGTLVTVSS
VL: DIQMTQSPSSLSASVGDRVTITCRASQSISNYLNWYQQKPGKAPKLLIYTASSLQSGVPSRFSGSGSGTDFTLTISSLQTEDFATYYCQQSYSNFPITFGQGTRLEIKR
B4: H1H21231N (antibody, human IgG1, V domains shown)
VH: EVQLVESGGGLVQPGGSLRLSCAASGFTFSDHYMDWVRQAPGKGLEWVGRTRNKANSHTTEYTASVTGRFTISRDDSRNSLYLQMNSLKTEDTAVYYCVRAGIIGTLFDYWGQGTLVTVSS
VL: B3 VL with S7F, N31S, Y32F, Y36F, L46F, T50A, T80P, N94S, F95P
B5: H1H21227N-N297D (antibody, human IgG1, V domains shown)
VH: B3 VH
VL: B3 VL
B6: H1H21227N (antibody, human IgG1, V domains shown)
VH: B3 VH
VL: B3 VL
B7: H1H21231N-N297Q (antibody, human IgG1, V domains shown)
VH: B4 VH
VL: B3 VL with S7F, N31S, Y32F, Y36F, L46F, T50A, T80P, N94S, F95P
B8: H1H21234N-N297Q (antibody, human IgG1, V domains shown)
VH: QVQLQESGPGLVKPSETLSLTCTVTGGSISRNYWSWIRQPPGKGLEWIGYIYYSGSIDYNPSLKSRVTISVDTSKNQFSLKLSSMTAADTAVYYCARDRWNWKYGMDVWGQGTTVIVSS
VL: EIVLTQSPGTLSLSPGERATLSCRASQTVRNNYLAWYHQKPGQAPRLLIYGASSRATGIPDRFSGSGSGTDFTLTISRLEPEDFTVYYCHQYGNSPWTFGQGTKMEIKR
B9: H1H21234N (antibody, human IgG1, V domains shown)
VH: B8 VH
VL: B8 VL
B10: H2aM25695N (antibody, mouse IgG2a, V domains shown)
VH: B8 VH with D58N, T73M, S83N, M85V
VL: B8 VL with N32S, T85A, H90Q, N94S, P96Y
B11: H1H27747P-N297Q (antibody, human IgG1, V domains shown)
VH: QVQLVESGGAVVQPGRSLRLSCAASGFTFSYYGMHWVRQAPGKGLEWVAVISYDGSKKYYADSVKGRFTISRDNSKNTLYLQMNSLRAEDTAVYYCAKDLTVDFYYGMDVWGQGTTVTVSS
VL: DIQMTQSPSSVSASVGDRVTITCRASQGISSWLAWYQQKPGKAPKLLIYATSSLQSGAPSRFSGSGSGTDFTLTISSLQPEDFATYFCQQANSFPYTFGQGTKLEIKR
B12: H1H27754P-N297Q (antibody, human IgG1, V domains shown)
VH: EVQLVESGGGLVQPGGSLRLSCAASGFTFRTYAMTWVRQAPGKGLDWVSAITGDGGNTYYADSVKGRFTISRDNSKNTLYLQMNSLRAEDTAIYYCAKDQRFSFALYYFDYWGQGTLVTVSS
VL: B11 VL with K42N, T51A, S52F, A58V, F87Y, S93N, Y96W, L104V
B13: H1H27739P-N297Q (antibody, human IgG1, V domains shown)
VH: EVQLVESGGGLVQPGGSLRLSCTASGFTFSSYAMSWVRQAPGKGLEWVSAISGTGSSTYFTDSVKGRFAISRDNSKNTLYLQMNSLRAEDTAVYYCAKDGEWLSTVTLFDYWGQGTLVTVSS
VL: EIVMTQSPATLSVSPGERATLSCRASQSVSSNLAWYQQKPGQAPRLLIYGASTRATGIPARFSGSGSGTDFTLTISSLQSEDFALYYCQQYFIWPPHPTFGPGTKVDIKR
B14: H1H27729P-N297Q (antibody, human IgG1, V domains shown)
VH: QVQLVESGGGLVKPGGSLRLSCAASGFIFSDYYMSWIRQAPGKGLEWVSYISSSGTTIYGDSVKGRFTMSRDNAKNSLYLQMNSLRAEDTAVYYCARNYALFDYWGQGTLVTVSS
VL: DIQMTQSPSSLSASVGDRVTITCQASQDISKYLNWYQQKPGKAPKLLIYYTSNLETGVPSRFSGSGSGTDFTFTISSLQPEDIATYYCHQSDYLPFTFGPGTKVDIKR

Substitutions are numbered along the chain they refer to. Numbers in names are those of the source.

The target of one assay is endogenously expressed human MSR1 on PMA-treated THP-1 cells (human) (UniProt P21757). In words: ECL cell binding, PMA-treated THP-1.
endogenously expressed human MSR1 on PMA-treated THP-1 cells (human), sequence (P21757 whole entry): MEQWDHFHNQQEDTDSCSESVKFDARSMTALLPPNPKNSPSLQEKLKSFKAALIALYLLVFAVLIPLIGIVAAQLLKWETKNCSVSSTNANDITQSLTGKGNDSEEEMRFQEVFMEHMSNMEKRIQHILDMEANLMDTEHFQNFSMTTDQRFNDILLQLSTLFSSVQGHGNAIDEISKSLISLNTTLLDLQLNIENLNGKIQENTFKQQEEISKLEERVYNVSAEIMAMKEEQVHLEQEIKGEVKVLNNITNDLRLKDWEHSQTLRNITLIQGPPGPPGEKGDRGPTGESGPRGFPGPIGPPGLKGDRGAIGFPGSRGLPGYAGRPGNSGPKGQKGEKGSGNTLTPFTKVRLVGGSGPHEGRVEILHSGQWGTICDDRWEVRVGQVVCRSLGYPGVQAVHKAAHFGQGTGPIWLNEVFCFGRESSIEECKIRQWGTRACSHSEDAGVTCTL
As for B1, the binding signal ratio to isotype control (11 nM) turned out to be 21 fold.
Still for that read-out and setting: then B2, with 56 fold; and B3, with 5 fold.
The same measure, in the same setting: then B4, with 42 fold; and B5, with 6 fold.
On the same count and under the same terms, then B6, with 7 fold; and B7, with 45 fold; and B8, with 25 fold.
B9: the binding signal ratio to isotype control (11 nM) amounted to 18 fold.
The same measure, in the same setting: then B10, with 8 fold; and B11, with 13 fold.
As for B12, the binding signal ratio to isotype control (11 nM) came to 66 fold.
Regarding B13, the binding signal ratio to isotype control (11 nM) was found to be 9 fold.
On the same count and under the same terms, then B14, with 8 fold.

The target of the next assay is human MSR1 endogenously expressed on PMA-differentiated THP-1 cells (human) (UniProt P21757). Kind of assay: imaging of PMA-differentiated THP-1 cells, 10 ug/mL antibody, Alexa 488 secondary.
human MSR1 endogenously expressed on PMA-differentiated THP-1 cells (human), sequence (P21757 whole entry): as above
B1 gave a Total Binding at 4° C. of 483000 RFU and a Total Binding at 37° C. of 1.15e+06 RFU.
B3: the Total Binding at 4° C. was 1.8e+06 RFU and the Total Binding at 37° C. amounted to 4.11e+06 RFU.
On the same counts, the results for B8 are 1.95e+06 RFU and 5.45e+06 RFU.
For B11, the Total Binding at 4° C. came to 2.52e+06 RFU and the Total Binding at 37° C. was 5.92e+06 RFU.
For B12, the Total Binding at 4° C. was determined as 3.08e+06 RFU and the Total Binding at 37° C. is 7.16e+06 RFU.
On the same counts, the results for B13 are 3.7e+06 RFU and 5.61e+06 RFU.
Take B14: the Total Binding at 4° C. was 1.93e+06 RFU and the Total Binding at 37° C. was 6.61e+06 RFU.

Source of the values: US20200368361A1.
